# According to article PMC4533223, “Structures of CD6 and Its Ligand CD166 Give Insight into Their Interaction” (Structure(London, England:1993), 2015):
# Changes are numbered by the printed parent chain. Where two headings read alike, the source gives them in different places.
# T1: human CD6-CD4d3+4 chimera, SNP variant S351N (human, UniProt P30203 18-402, S351N, N-linked glycosylation at N351 (shown by mass spectrometry))
# T1 construct: human CD6 extracellular region with the membrane proximal stalk, as Dm2; S351N is a SNP found in 10% of the genomes analyzed; The 293T cells and the purification with OX68-Sepharose are told for the sample used in the glycosylation mass spectrometry; also called CD6 S351N; CD6-CD4d3+4 S351N; source: transiently expressed in 293T cells; not shown: rat CD4 domains 3 and 4 (CD4d3+4), C-terminal, kept
# T1 sequence (looked up): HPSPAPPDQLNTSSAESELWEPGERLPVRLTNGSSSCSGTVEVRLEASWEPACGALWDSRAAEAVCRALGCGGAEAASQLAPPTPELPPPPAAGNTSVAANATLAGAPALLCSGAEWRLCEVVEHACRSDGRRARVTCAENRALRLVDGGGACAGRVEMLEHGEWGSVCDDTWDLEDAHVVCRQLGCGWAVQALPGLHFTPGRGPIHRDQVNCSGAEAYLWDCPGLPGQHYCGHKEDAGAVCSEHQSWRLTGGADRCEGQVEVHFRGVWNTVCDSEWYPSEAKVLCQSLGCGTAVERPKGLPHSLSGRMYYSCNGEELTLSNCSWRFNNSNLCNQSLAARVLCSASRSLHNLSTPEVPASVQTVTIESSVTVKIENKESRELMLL
# T2: human CD6-CD4d3+4 chimera, mutant S351A (human, UniProt P30203 18-402, S351A)
# T2 construct: human CD6 extracellular region with the membrane proximal stalk, as Dm2; also called CD6 S351A; source: mutant made with a Q5 SDM kit; not shown: rat CD4 domains 3 and 4 (CD4d3+4), C-terminal, kept
# T2 sequence (looked up): T1 sequence (looked up) with N334A
# T3: human CD6 domains 1-3 plus stalk fused to rat CD4 domains 3 and 4 (CD6 d1-3S, wild type, S351) (human, UniProt P30203 18-402, biotin on the tag (immobilisation to streptavidin, Figure S1))
# T3 construct: also called CD6-CD4d3+4; CD6 WT; not shown: rat CD4 domains 3 and 4 (CD4d3+4), C-terminal, kept
# T3 sequence (looked up): T1 sequence (looked up) with N334S
# T4: human CD6 S351N (SNP variant) (human, UniProt P30203 18-668, S351N, N-linked glycan at N351; N28, N49, N229 glycosylated, N339 appears partially glycosylated)
# T4 construct: human CD6 with the SNP S351N, found in 10% of the genomes analyzed; made by mutagenesis; Probably the same chimeric, streptavidin-immobilized format as m3 (surmised); construct in the supplement
# T4 sequence (looked up): T1 sequence (looked up)
# B1: soluble recombinant human CD166 VVC (IgSF domains 1-3, two V-like domains and one C-like domain), His-tagged (domain or fragment, UniProt Q13740 28-335, looked up)
# chain: WYTVNSAYGDTIIIPCRLDVPQNLMFGKWKYEKPDGSPVFIAFRSSTKKSVQYDDVPEYKDRLNLSENYTLSISNARISDEKRFVCMLVTEDNVFEAPTIVKVFKQPSKPEIVSKALFLETEQLKKLGDCISEDSYPDGNITWYRNGKVLHPLEGAVVIIFKKEMDPVTQLYTMTSTLEYKTTKADIQMPFTCSVTYYGPSGQKTIHSEQAVFDIYYPTEQVTIQVLPPKNAIKEGDNITLKCLGNGNPPPEEFLFYLPGQPEGIRSSNTYTLTDVRRNATGDYKCSLIDKKSMIASTAITVHYLDLS
# notes: signal peptide in the construct; human CD166 (ALCAM) residues 1-335 with the native leader; Deglycosylated with EndoHf only for crystallization; also called ALCAM; source: purified (NiNTA, Superdex200)
# B2: human CD166 IgSF domains 1-3 (CD166 VVC), His-tagged (residues 1-335) (domain or fragment, UniProt Q13740 28-335, looked up)
# chain: B1 chain
# modifications: N-linked glycans (endoglycosidase H sensitive; heterogeneity in mass caused by glycosylation)
# notes: signal peptide in the construct; In the crystal (PDB 5a2f) only domains 1 and 2 were resolved; the third domain was probably cleaved off before crystal growth; protein deglycosylated with EndoHf for crystallization; also called ALCAM; source: purified (NiNTA, Superdex200)
# B3: human CD6 SRCR domains 1-3, His-tagged (residues 1-364) (domain or fragment, UniProt P30203 18-364, looked up)
# chain: HPSPAPPDQLNTSSAESELWEPGERLPVRLTNGSSSCSGTVEVRLEASWEPACGALWDSRAAEAVCRALGCGGAEAASQLAPPTPELPPPPAAGNTSVAANATLAGAPALLCSGAEWRLCEVVEHACRSDGRRARVTCAENRALRLVDGGGACAGRVEMLEHGEWGSVCDDTWDLEDAHVVCRQLGCGWAVQALPGLHFTPGRGPIHRDQVNCSGAEAYLWDCPGLPGQHYCGHKEDAGAVCSEHQSWRLTGGADRCEGQVEVHFRGVWNTVCDSEWYPSEAKVLCQSLGCGTAVERPKGLPHSLSGRMYYSCNGEELTLSNCSWRFNNSNLCSQSLAARVLCSASR
# modifications: N-linked glycans (endoglycosidase H sensitive; heterogeneity in mass caused by glycosylation; GlcNAc seen at N229 in the crystal)
# notes: signal peptide in the construct; Deglycosylated with EndoHf only for crystallization; source: purified (NiNTA, Superdex200)
# Assays:
# [1] = molecular target: human CD6 domains 2-3 plus stalk fused to rat CD4 domains 3 and 4 (CD6 d2-3S) (human) (UniProt P30203); test: SPR; BIAcore 3000; CD6-CD4d3+4 chimeras (d1-3S, d2-3S, d3S) immobilised via the biotin tag to streptavidin, rat CD4 d3+4 in the control flow cell; soluble CD166 VVC injected, top 1.0 μM plus nine two-fold dilutions; 37 °C, HBS-EP, 20 μl/min; equilibrium binding, Langmuir 1:1 fit
# [2] = molecular target: human CD6 domain 3 plus stalk fused to rat CD4 domains 3 and 4 (CD6 d3S) (human) (UniProt P30203); test: as above
# [3] = molecular target: T1, human CD6-CD4d3+4 chimera, SNP variant …; test: SPR; BIAcore 3000; CD6 S351, S351A and S351N (CD4d3+4 chimeras) immobilised via OX68 mAb, rat CD4 d3+4 in the control flow cell; soluble CD166 VVC injected, top 2.5 μM plus nine two-fold dilutions; 25 °C, HBS-EP, 20 μl/min; KD from equilibrium binding (Langmuir 1:1), koff from one phase exponential decay; conditions: one partner purified
# [4] = molecular target: T2, human CD6-CD4d3+4 chimera, mutant S351A; test: as above; conditions: one partner purified
# [5] = molecular target: T3, human CD6 domains 1-3 plus stalk fused …; test: as above; conditions: one partner purified
# [6] = molecular target: T3, human CD6 domains 1-3 plus stalk fused …; test: SPR; BIAcore 3000; CD6-CD4d3+4 chimeras (d1-3S, d2-3S, d3S) immobilised via the biotin tag to streptavidin, rat CD4 d3+4 in the control flow cell; soluble CD166 VVC injected, top 1.0 μM plus nine two-fold dilutions; 37 °C, HBS-EP, 20 μl/min; equilibrium binding, Langmuir 1:1 fit; conditions: one partner purified
# [7] = molecular target: human CD6 domains 2-3 plus stalk fused to rat CD4 domains 3 and 4 (CD6 d2-3S) (human) (UniProt P30203); test: as above; remark: listed apart in the source
# [8] = molecular target: human CD6 domain 3 plus stalk fused to rat CD4 domains 3 and 4 (CD6 d3S) (human) (UniProt P30203); test: as above; remark: listed apart in the source
# [9] = molecular target: T1, human CD6-CD4d3+4 chimera, SNP variant …; test: SPR; BIAcore 3000; CD6 S351, S351A and S351N (CD4d3+4 chimeras) immobilised via OX68 mAb, rat CD4 d3+4 in the control flow cell; soluble CD166 VVC injected, top 2.5 μM plus nine two-fold dilutions; 25 °C, HBS-EP, 20 μl/min; KD from equilibrium binding (Langmuir 1:1), koff from one phase exponential decay; conditions: one partner purified; remark: listed apart in the source
# [10] = molecular target: T2, human CD6-CD4d3+4 chimera, mutant S351A; test: as above; conditions: one partner purified; remark: listed apart in the source
# [11] = molecular target: T3, human CD6 domains 1-3 plus stalk fused …; test: as above; conditions: one partner purified; remark: listed apart in the source
# [12] = molecular target: the molecule itself; test: SEC-MALS; Superdex200 10/30 in 50 mM Tris.HCl, pH 7.5, 150 mM NaCl, 0.4 ml/min; CD6 alone 39 µM, CD166 VVC alone 28 µM, equimolar mixture 27 µM each; samples diluted approximately 10-fold on the column
# [13] = molecular target: T3, human CD6 domains 1-3 plus stalk fused …; test: SPR; BIAcore 3000; CD6-CD4d3+4 chimeras (d1-3S, d2-3S, d3S) immobilised via the biotin tag to streptavidin, rat CD4 d3+4 in the control flow cell; soluble CD166 VVC injected, top 1.0 μM plus nine two-fold dilutions; 37 °C, HBS-EP, 20 μl/min; equilibrium binding, Langmuir 1:1 fit; conditions: one partner purified; remark: listed apart in the source
# [14] = molecular target: the molecule itself; test: native MS; each protein alone at 20 μM; buffer exchanged into 250 mM ammonium acetate pH 7.6; dimer to monomers
# [15] = molecular target: T4, human CD6 S351N (SNP variant); test: SPR; soluble CD166 VVC over streptavidin-immobilized chimeric CD6 forms and variants; conditions: both partners purified
binder,measurement,setting,value
B1,Kd,[1],81 nM
same,Kd,[2],86 nM
same,Kd,[3],599 nM
same,koff,[3],0.337 s⁻¹
same,Kd,[4],83 nM
same,koff,[4],0.049 s⁻¹
same,Kd,[5],120 nM
same,koff,[5],0.072 s⁻¹
same,Kd,[6],90 nM
same,Kd,[7],90 nM
same,Kd,[8],100 nM
same,Kd,[9],500 nM
same,koff,[9],0.4 s⁻¹
same,Kd,[10],60 nM
same,koff,[10],0.05 s⁻¹
same,Kd,[11],90 nM
same,koff,[11],0.07 s⁻¹
same,stoichiometry N,[12],2
same,Kd,[13],77 nM
B2,stoichiometry N,[14],2
same,fold weaker affinity than for CD6 S351,[15],10 fold
B3,stoichiometry N,[14],2
